Measured values: patent publication US20220298255A1 (SEATTLE CHILDREN S HOSPITAL D B A SEATTLE CHILDREN S …, published 2022)

T1: mouse E-cadherin on cells (endogenous on 4T1 and Py2T cells; expressed in colo205 cells) (mouse, UniProt P09803 157-884)
T1 construct: whole, on cells; also called endogenous mouse E-cadherin; mE-cadherin
T1 sequence (looked up): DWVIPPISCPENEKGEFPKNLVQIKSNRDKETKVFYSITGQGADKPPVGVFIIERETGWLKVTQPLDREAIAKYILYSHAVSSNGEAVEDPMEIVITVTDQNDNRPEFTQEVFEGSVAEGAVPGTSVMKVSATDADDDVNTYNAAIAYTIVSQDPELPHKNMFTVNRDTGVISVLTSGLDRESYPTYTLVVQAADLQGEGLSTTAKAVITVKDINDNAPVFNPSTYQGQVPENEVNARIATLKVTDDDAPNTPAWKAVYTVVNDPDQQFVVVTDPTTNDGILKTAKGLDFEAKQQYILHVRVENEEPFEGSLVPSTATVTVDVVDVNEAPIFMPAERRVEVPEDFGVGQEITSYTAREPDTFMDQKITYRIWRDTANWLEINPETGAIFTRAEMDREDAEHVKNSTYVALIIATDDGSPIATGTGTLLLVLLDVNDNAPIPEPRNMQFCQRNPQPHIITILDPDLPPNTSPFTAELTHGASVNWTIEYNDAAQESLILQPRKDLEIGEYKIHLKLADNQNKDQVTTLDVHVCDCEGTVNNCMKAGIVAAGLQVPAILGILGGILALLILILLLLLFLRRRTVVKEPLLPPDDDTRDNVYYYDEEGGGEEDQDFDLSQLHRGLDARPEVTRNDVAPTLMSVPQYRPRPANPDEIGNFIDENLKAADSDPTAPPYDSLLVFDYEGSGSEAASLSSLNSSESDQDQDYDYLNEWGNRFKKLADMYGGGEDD

T2: mouse E-cadherin (form in the assay not stated) (mouse, UniProt P09803 157-709, limits assumed)
T2 construct: neither place states the form; also called the mouse E-cadherin
T2 sequence (looked up): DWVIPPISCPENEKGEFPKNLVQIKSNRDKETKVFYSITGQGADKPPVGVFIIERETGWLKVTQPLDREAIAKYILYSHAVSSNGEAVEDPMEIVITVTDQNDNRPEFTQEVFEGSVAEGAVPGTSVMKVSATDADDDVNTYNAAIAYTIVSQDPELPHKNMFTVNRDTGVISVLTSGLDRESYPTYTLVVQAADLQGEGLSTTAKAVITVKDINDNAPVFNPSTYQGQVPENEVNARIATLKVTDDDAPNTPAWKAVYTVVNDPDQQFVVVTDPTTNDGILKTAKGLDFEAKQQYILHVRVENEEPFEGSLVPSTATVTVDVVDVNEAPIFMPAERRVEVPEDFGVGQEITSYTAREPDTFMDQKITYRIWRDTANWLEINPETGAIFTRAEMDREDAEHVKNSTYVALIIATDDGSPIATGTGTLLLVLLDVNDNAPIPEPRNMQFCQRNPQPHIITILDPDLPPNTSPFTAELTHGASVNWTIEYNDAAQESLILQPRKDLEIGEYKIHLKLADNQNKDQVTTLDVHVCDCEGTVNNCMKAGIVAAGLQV


Columns and labels:
[1] = molecular target: T1, mouse E-cadherin on cells (endogenous …); assay: immunofluorescence staining of parental 4T1 cells, antibody at 1 µg/mL for 7 hrs
[2] = molecular target: T2, mouse E-cadherin (form in the assay not …); assay: ELISA of hybridomas
[3] = molecular target: T2, mouse E-cadherin (form in the assay not …); assay: not described

Row | binding result [1] | binding result [2] | binding result [3] | Binder
1 | binds | binds | – | rabbit anti-mouse E-cad monoclonal antibody mAb-2_18-5 (antibody, mouse IgG1, V domains shown, also called Whole IgG 18.5) VH: EQLEESGGGLVKPGASLTLTCTASGFDLSTYFYMCWVRQAPGKGLEWIACIYVGSTGDTYYANWAKGRFTISKTSSTTVTLQMTSLTDADTATYFCARDIFATGINYYRALWGPGTLVTVSS VL: AFELTQTPASVEAGVGGTVTIKCQASESINSWLSWYQQKPGQPPTLLIYSASTLASGVPSRFKGSRSGTQFTLTISDLECADAATYYCQSYYGTSTTAFGGGTEVVVK
2 | – | – | no binding | mouse anti-human E-cad monoclonal antibody mAB-1_19A11 (antibody, V domains shown, also called mAb 19A11) VH: QVQLKESGPGLVAPSQSLSITCTVSGFSLSRYGVHWVRQPPGKGLEWLGMMWGGGNTDYNSALKSRLSISKDNSKSQVFLKMNSLQTDDTAMYYCASSNYVLGYAMDYWGQGTSVTVSS VL: DIVMTQSPSSLAMSVGQKVTMNCKSSQSLLNSSNQKNYLAWYQQKPGQSPKLLIYFTSTRGSGVPDRFIGSGSGTDFTLTISSVEAEDLADYFCQQHYRTPHTFGGGTKVEIK
